According to patent US5834290:

Biological target: stratum corneum chymotryptic enzyme (SCCE), native, from human plantar stratum corneum (human)

soybean trypsin inhibitor (SBTI) (from UniProt P01070)
hydrolysis of S-2586 by the proteinase associated with plantar stratum corneum cells, Activity (%): 6 % activity
